Target: HIV-1 gp120 fragment OD1 (HIV-1)
Assay: SPR

B1: broadly neutralizing antibody b12 (antibody, V domains shown)
VH: QVQLVQSGAEVKKPGASVKVSCQASGYRFSNFVIHWVRQAPGQRFEWMGWINPYNGNKEFSAKFQDRVTFTADTSANTAYMELRSLRSADTAVYYCARVGPYSWDDSPQDNYYMDVWGKGTTVIVSS
VL: EIVLTQSPGTLSLSPGERATFSCRSSHSIRSRRVAWYQHKPGQAPRLVIHGVSNRASGISDRFSGSGSGTDFTLTITRVEPEDFALYYCQVYGASSYTFGQGTKLERK
Q: B1 was tested. Which “fold faster dissociation rate than on HXBc2 core gp120” value did it give?
A: ~15 fold
